{"source": "the supplement of paper PMC9732359", "note": "± gives the uncertainty stated by the source.", "data": [{"assay": "protein stability index of a GFP-peptide fusion (yeast GPS) (PSI 1-4); higher = more stable; sorted into four equal gates, so the index is relative within each strain", "conditions": "ubr1∆", "procedure,_shortened": "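Peptides tiling yeast proteins in 17-residue segments were fused downstream of GFP, with Cherry expressed from the same plasmid. As a pooled library in yeast, mid-log cultures grown in leucine-free medium were sorted into four equal gates by GFP/Cherry fluorescence ratio. Gate plasmids were PCR-amplified and Illumina-sequenced, and barcodes linked reads to strains. Each peptide received a protein stability index equal to the sum of each gate's read frequency times its gate number.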", "values": [{"sequence": "TPDASKPSFSFGVPNSS [YLR335W/NUP2]", "protein stability index": "2.94 ± 0.072"}, {"sequence": "TPDDDEIDVENHDRINI [RPN8]", "protein stability index": "2.68 ± 0.16"}, {"sequence": "TPGLTFNAIDLARHLPA [RPC82]", "protein stability index": "3.21 ± 0.075"}, {"sequence": "TPIAGRFTPGSFTNYIT [RPS0A]", "protein stability index": "3.16 ± 0.1"}, {"sequence": "TPLSIKIMVAEWYLSHL [SRB8]", "protein stability index": "2.5 ± 0.063"}, {"sequence": "TPSFSFGKTTANLPANS [YLR335W/NUP2]", "protein stability index": "3.19 ± 0.054"}, {"sequence": "TPSNIRSLCEVLVYDDK [RPC34]", "protein stability index": "1.59 ± 0.086"}, {"sequence": "TQAAEFLSPYISTHLKT [IRR1]", "protein stability index": "2.21 ± 0.043"}, {"sequence": "TQHEEEEEQDTGESEES [IRR1]", "protein stability index": "3.39 ± 0.15"}, {"sequence": "TQLQICLDQMTEQFCAT [SRB7]", "protein stability index": "2.52 ± 0.052"}, {"sequence": "TQPKATSTGTTIVGVKF [PUP1]", "protein stability index": "3.03 ± 0.091"}, {"sequence": "TQQAVNLEKNYLAKLSK [IRR1]", "protein stability index": "2.91 ± 0.14"}, {"sequence": "TQRIMTNVIAFAFWNLL [YLR018C/POM34]", "protein stability index": "1.58 ± 0.027"}, {"sequence": "TQTGQNTGPSTGGLFGA [YGL172W/NUP49]", "protein stability index": "3.52 ± 0.13"}, {"sequence": "TRAAKIAPRPLDLLRPV [RPL13A]", "protein stability index": "2.89 ± 0.054"}, {"sequence": "TRAKIGGLNDPRLGSID [RPO21]", "protein stability index": "2.37 ± 0.083"}, {"sequence": "TRALQISMNAPVFVDLE [RPO26]", "protein stability index": "3 ± 0.19"}, {"sequence": "TRGGASALIENNLFRII [YJL039C/NUP192]", "protein stability index": "2.7 ± 0.041"}, {"sequence": "TRISSQFEKSRKVSGPR [RET1]", "protein stability index": "2.75 ± 0.2"}, {"sequence": "TRLPAFERPAVKEEKED [RPC53]", "protein stability index": "3.46 ± 0.16"}, {"sequence": "TRNPDAPKGSTDPKELY [RPC40]", "protein stability index": "3.48 ± 0.16"}, {"sequence": "TRQASDLASSKEVLAKI [RPN5]", "protein stability index": "2.85 ± 0.076"}, {"sequence": "TRVNAQLESYEYMVQYI [RRI1]", "protein stability index": "3.22 ± 0.076"}, {"sequence": "TSDPVMHKQLAYILAAQ [RPN1]", "protein stability index": "2.1 ± 0.11"}, {"sequence": "TSFDIKREGRNELQEER [POP6]", "protein stability index": "3.27 ± 0.07"}, {"sequence": "TSIEKSSEILSYLSNSL [YML103C/NUP188]", "protein stability index": "2.14 ± 0.046"}, {"sequence": "TSLITAVYGPRSIRGSF [MTR3]", "protein stability index": "2.28 ± 0.058"}, {"sequence": "TSLSSKDLSNYRKTEGI [YMR153W/NUP53]", "protein stability index": "3.35 ± 0.043"}, {"sequence": "TSLTSIKWENAFVSVYS [PRP8]", "protein stability index": "2.67 ± 0.038"}, {"sequence": "TSPFGGARPGRVARRNA [RPS9A]", "protein stability index": "3.28 ± 0.1"}, {"sequence": "TSPIDIREKVAKQALDL [SNF2]", "protein stability index": "2.69 ± 0.15"}, {"sequence": "TSQMDLARDTPSANNSS [RRP4]", "protein stability index": "1.51 ± 0.045"}, {"sequence": "TSQNPQRDAEISQPKSM [BRR2]", "protein stability index": "2.88 ± 0.11"}, {"sequence": "TSRTIVRNVKGPVREND [RPS28A]", "protein stability index": "3.27 ± 0.086"}, {"sequence": "TTALLKDEEIEKLLQQD [MED8]", "protein stability index": "3.59 ± 0.14"}, {"sequence": "TTAVEDEDDDLDEDDVN [RPB4]", "protein stability index": "3.3 ± 0.093"}, {"sequence": "TTDANGSKENYQELGSL [MED2]", "protein stability index": "2.9 ± 0.075"}, {"sequence": "TTDSLTKVLQADLPGSY [YMR129W/POM152]", "protein stability index": "2.43 ± 0.078"}, {"sequence": "TTEMLDKLMVTSIRSTP [MED6]", "protein stability index": "2.53 ± 0.089"}, {"sequence": "TTIFVKSTTPYVSALKR [POP7]", "protein stability index": "1.97 ± 0.056"}, {"sequence": "TTLHGPGFQLPNRITLT [SRB8]", "protein stability index": "2.89 ± 0.061"}, {"sequence": "TTSRFSKQVTDYYQSIY [FAS2]", "protein stability index": "2.59 ± 0.05"}, {"sequence": "TTTNTDQNNATMGEETA [SNF12]", "protein stability index": "3.21 ± 0.1"}, {"sequence": "TTVSNDLENSPLKTELE [SSN2]", "protein stability index": "3.19 ± 0.082"}, {"sequence": "TVAVMSYSGYDIEDALV [RET1]", "protein stability index": "2.83 ± 0.072"}, {"sequence": "TVDVSSPTENGVFDPAS [RPL22A]", "protein stability index": "2.87 ± 0.042"}, {"sequence": "TVHKTFEGNVATKAING [PRP8]", "protein stability index": "2.71 ± 0.062"}, {"sequence": "TVIEGVKEESQPDENTK [SWI3]", "protein stability index": "3 ± 0.089"}, {"sequence": "TVIRGNSIISLEALDAI [SMX2]", "protein stability index": "2.57 ± 0.055"}, {"sequence": "TVLFFIGVRCYEAYPNT [FAS1]", "protein stability index": "1.8 ± 0.043"}, {"sequence": "TVNHSEKFPNDVKLLNP [RPP1]", "protein stability index": "3 ± 0.036"}, {"sequence": "TVPRIVQLLSKSHNAHV [RPN2]", "protein stability index": "1.98 ± 0.048"}, {"sequence": "TVQNEILGDLGKEFGTT [FAS2]", "protein stability index": "2.9 ± 0.16"}, {"sequence": "TVQYVRFFWKRSTNKKS [UBP6]", "protein stability index": "1.12 ± 0.04"}, {"sequence": "TVSILQESSSLRLLEVT [POP8]", "protein stability index": "2.33 ± 0.033"}, {"sequence": "TVTLNKNREVVQVSKAG [RRP45]", "protein stability index": "2.82 ± 0.065"}, {"sequence": "TVVQVYDNGQVFPSSIL [RPP0]", "protein stability index": "1.29 ± 0.14"}, {"sequence": "TYLNEVLEKDAAIVKKY [YGR119C/NUP57]", "protein stability index": "3.08 ± 0.069"}, {"sequence": "TYVEELFPIVKKHGKTD [YJL039C/NUP192]", "protein stability index": "3.19 ± 0.091"}, {"sequence": "VAATITSSQKEPFFLVT [SRB8]", "protein stability index": "2.21 ± 0.075"}, {"sequence": "VAIGNTYGFLTPNLWAE [RPS2]", "protein stability index": "2.43 ± 0.04"}, {"sequence": "VANQTSATFLRIVGSEL [RPT2]", "protein stability index": "2.13 ± 0.082"}, {"sequence": "VCAKLFGNIQKVVNFWL [RPO21]", "protein stability index": "1.78 ± 0.074"}, {"sequence": "VDYGGAEWSLVRIYSGL [SNU114]", "protein stability index": "3.66 ± 0.18"}, {"sequence": "VECTISILRKSSPEEPF [SNF12]", "protein stability index": "1.14 ± 0.051"}, {"sequence": "VEDGNILVFQVSMKANK [RPL25]", "protein stability index": "2.69 ± 0.037"}, {"sequence": "VEEDHTLGNALRYVIMK [RPC19]", "protein stability index": "2.73 ± 0.063"}, {"sequence": "VEETEVPTVPPSQSEEQ [MED4]", "protein stability index": "2.74 ± 0.055"}, {"sequence": "VEGISEVQARKSKSVSF [RPT5]", "protein stability index": "3.3 ± 0.069"}, {"sequence": "VENELLQVDVDIAGQRD [RRP42]", "protein stability index": "1.14 ± 0.19"}, {"sequence": "VEYLTRYVAGVQQRYTQ [PRE6]", "protein stability index": "1.66 ± 0.1"}, {"sequence": "VEYNLFTNRSTMMANFE [BRN1]", "protein stability index": "2.65 ± 0.053"}, {"sequence": "VFDKDGNYIKTENATEN [LIN1]", "protein stability index": "3.72 ± 0.28"}, {"sequence": "VFGASDKQAEGTPLFTF [YOR098C/NUP1]", "protein stability index": "3.21 ± 0.081"}, {"sequence": "VFGTIIPKISDYIEFNI [YJL039C/NUP192]", "protein stability index": "1.61 ± 0.26"}, {"sequence": "VFKTHSYRGVDLEKLLE [RPS15]", "protein stability index": "2.29 ± 0.04"}, {"sequence": "VFPSSILDITDEELVSH [RPP0]", "protein stability index": "2.99 ± 0.065"}, {"sequence": "VFSESCSNESFASIPVS [SNU114]", "protein stability index": "3.12 ± 0.044"}, {"sequence": "VFTMKELAQYMKTNVHT [RGR1]", "protein stability index": "2.69 ± 0.057"}, {"sequence": "VFVGSGKGTGKTAMAEL [BRR2]", "protein stability index": "3.41 ± 0.098"}, {"sequence": "VFYRMQQLRRALPDVVV [RPO31]", "protein stability index": "1.99 ± 0.047"}, {"sequence": "VGDVVGGALDNPFEDDM [BRN1]", "protein stability index": "3.16 ± 0.11"}, {"sequence": "VGKQIVNIPSFMVRLDS [RPS9A]", "protein stability index": "2.62 ± 0.096"}, {"sequence": "VGLRSNTHAVLVALKRN [PRE5]", "protein stability index": "1.21 ± 0.033"}, {"sequence": "VGLSQPDAKIQVRRDIP [YMR129W/POM152]", "protein stability index": "2.97 ± 0.066"}, {"sequence": "VGPHFKQANNFLWPFKL [RPL7A]", "protein stability index": "2.93 ± 0.064"}, {"sequence": "VGSPLTVSILQESSSLR [POP8]", "protein stability index": "3.1 ± 0.042"}, {"sequence": "VHKLRHYLVNLTSPAFG [GRR1]", "protein stability index": "1.21 ± 0.031"}, {"sequence": "VHPFHVLRINKMLSCAG [RPL10]", "protein stability index": "1.05 ± 0.06"}, {"sequence": "VHRDDPALVGKLRGDLR [SNF6]", "protein stability index": "2.88 ± 0.071"}, {"sequence": "VIDIGASGCNVTPIIDG [ARP7]", "protein stability index": "3.02 ± 0.05"}, {"sequence": "VIIRRLKTRDWIVVLPW [POP1]", "protein stability index": "1.82 ± 0.057"}, {"sequence": "VIRIPMQENDKINQERL [CSI1]", "protein stability index": "2.82 ± 0.072"}, {"sequence": "VIVTDPRLDAQAIKEAS [RPS0B]", "protein stability index": "2.9 ± 0.075"}, {"sequence": "VIYRNSLYKVSFLEKPK [YMR129W/POM152]", "protein stability index": "2.43 ± 0.12"}, {"sequence": "VKALRNVPGVETANVAS [RPL4A]", "protein stability index": "3.01 ± 0.048"}, {"sequence": "VKCEELSNTLACYRTIM [RRP40]", "protein stability index": "2.57 ± 0.075"}, {"sequence": "VKDEAFDDLLKPVYKGK [RET1]", "protein stability index": "3.12 ± 0.17"}, {"sequence": "VKDLGQGLKLAKKHKLN [SMC3]", "protein stability index": "2.81 ± 0.068"}, {"sequence": "VKEESQPDENTKEMDEV [SWI3]", "protein stability index": "3.03 ± 0.11"}, {"sequence": "VKGDLLQEAIDFAQKEI [PRE10]", "protein stability index": "2.9 ± 0.048"}]}]}
